The numbers were not newly measured in paper PMC3082522, which cites them from elsewhere.

The term Kd denotes the constant that tells how readily two partners part at equilibrium.

The target in the data set is filamentous actin (Oryctolagus cuniculus) (UniProt P68135).

As to espin (from UniProt Q63618), the Kd is 220 nM.
